Reference: patent US20210371498A1, “MHC CLASS I COMPOSITIONS AND METHODS” (priority 2020, published 2021)

Target: T1, HLA-A*02:01 (Homo sapiens, UniProt P04439, D140Y/D185E/D98H/E176V/E277Q/G131W/G231S/I119V/I121R/I166T/I218V/L300P/L318F/N151K/N90K/P208A/P217A/Q86G/Q94H/R138H/R169H/T345S)
T1 construct: Plasmid DNA encoding the BirA tagged luminal domain of MHC-I heavy chains HLA-A*02:01; made in house; Drosophila S2 cells (TAPBPR); gTAX synthetic (Genscript)
Assay: not given
Format: binding
Settings: p*MHC-I/gTAX incubated with peptide and TAPBPR, 12% native gel

In the case of “YPNVNIHNF [non-specific peptide, non-specific gp29 peptide used as a negative control]”, the “band of exchanged pMHC-I on native gel” value was “no condensed band”.

Target: T1, HLA-A*02:01
Assay: not given
Format: binding
Settings: not given

First: VVFLHVTYV [Peptide 17]
Second: TLACFVLAAV [Peptide 12]
The Tm of the first is lower: 52.3 ± 0.0 °C for the first, 53.3 ± 0.6 °C for the second.

TLMNVLTLV [Peptide 15] showed a Tm of 61.2 ± 0.6 °C.

Same assay, conditions: p/HLA-A*02:01 prepared by TAPBPR-mediated peptide exchange, 10-fold molar excess of peptide, overnight 4° C.; DSF first derivative; ± SD of 3 replicates

First: GMSRIGMEV [Peptide 8]
Second: SIIAYTMSL [Peptide 14]
The Tm of the first is lower: 48.3 ± 0.0 °C for the first, 53.3 ± 0.6 °C for the second.

Compared with ILLLDQALV [Peptide 10], WLMWLIINL [Peptide 9] is lower in Tm: 52.3 ± 0.0 °C for the first, 42.4 ± 4.0 °C for the second.

Compared with GLIAIVMVTI [Peptide 23], LLLQYGSFC [Peptide 31] is higher in Tm: 40.4 ± 0.6 °C for the first, 47.3 ± 0.6 °C for the second.

Compared with LLLDRLNQL [Peptide 7], IITTDNTFV [Peptide 24] is lower in Tm: 54.3 ± 0.6 °C for the first, 42.4 ± 0.6 °C for the second.

Going from SLPGVFCGV [Peptide 11] to RLNEVAKNL [Peptide 3], the Tm falls from 59.3 ± 0.0 °C to 46.3 ± 0.6 °C.

First: ALNTLVKQL [Peptide 1]
Second: LITGRLQSL [Peptide 29]
The Tm of the first is higher: 48.3 ± 0.6 °C for the first, 44.4 ± 0.6 °C for the second.

First: NLNESLIDL [Peptide 4]
Second: ILLNKHIDA [Peptide 16]
The Tm of the first is higher: 47.3 ± 0.6 °C for the first, 43.4 ± 0.0 °C for the second.

ALNTPKDHI [Peptide 26] and LQLPQGTTL [Peptide 28] are the same in Tm: 44.4 ± 0.6 °C for the first, 44.4 ± 1.1 °C for the second.

LLLLDRLNQL [Peptide 22] and GLMWLSYFI [Peptide 6] are within error of each other in Tm: 42.4 ± 0.6 °C for the first, 41.4 ± 7.9 °C for the second.

Compared with SMWALIISV [Peptide 25], VLNDILSRL [Peptide 2] is lower in Tm: 52.3 ± 0.6 °C for the first, 50.3 ± 0.0 °C for the second.

Compared with TTLPKGFYA [Peptide 32], VLQLPQGTTL [Peptide 21] is lower in Tm: 46.3 ± 0.6 °C for the first, 39.4 ± 0.0 °C for the second.

First: KLPDDFTGCV [Peptide 13]
Second: LALLLLDRL [Peptide 27]
The Tm of the first is higher: 53.3 ± 0.0 °C for the first, 43.3 ± 1.5 °C for the second.

Target: T2, gTAX/HLA-A*02:01 (Homo sapiens, UniProt P04439, D140Y/D185E/D98H/E176V/E277Q/G131W/G231S/I119V/I121R/I166T/I218V/L300P/L318F/N151K/N90K/P208A/P217A/Q86G/Q94H/R138H/R169H/T345S)
T2 construct: Plasmid DNA encoding the luminal domain of class I MHC (MHC-I) heavy chain HLA-A*02:01; made in house; Drosophila S2 cells (TAPBPR); gTAX synthetic (Genscript)
Assay: Native gel electrophoresis of TAPBPR-catalysed peptide exchange on gTAX/HLA-A*02:01 (Example 1)
Format: biochemical
Settings: overnight incubation, 10-fold molar excess of peptide, with TAPBPR

With “YPNVNIHNF [non-specific peptide, non-specific gp29 peptide used as a negative control]” the “peptide exchange on gTAX/HLA-A*02:01 (native gel)” value was “no exchange was observed”.
